The record followed here is patent US20200031888.

This data set has as its target C3b (Comptech), P01024.

C3b (Comptech), P01024, sequence (P01024 whole entry, looked up): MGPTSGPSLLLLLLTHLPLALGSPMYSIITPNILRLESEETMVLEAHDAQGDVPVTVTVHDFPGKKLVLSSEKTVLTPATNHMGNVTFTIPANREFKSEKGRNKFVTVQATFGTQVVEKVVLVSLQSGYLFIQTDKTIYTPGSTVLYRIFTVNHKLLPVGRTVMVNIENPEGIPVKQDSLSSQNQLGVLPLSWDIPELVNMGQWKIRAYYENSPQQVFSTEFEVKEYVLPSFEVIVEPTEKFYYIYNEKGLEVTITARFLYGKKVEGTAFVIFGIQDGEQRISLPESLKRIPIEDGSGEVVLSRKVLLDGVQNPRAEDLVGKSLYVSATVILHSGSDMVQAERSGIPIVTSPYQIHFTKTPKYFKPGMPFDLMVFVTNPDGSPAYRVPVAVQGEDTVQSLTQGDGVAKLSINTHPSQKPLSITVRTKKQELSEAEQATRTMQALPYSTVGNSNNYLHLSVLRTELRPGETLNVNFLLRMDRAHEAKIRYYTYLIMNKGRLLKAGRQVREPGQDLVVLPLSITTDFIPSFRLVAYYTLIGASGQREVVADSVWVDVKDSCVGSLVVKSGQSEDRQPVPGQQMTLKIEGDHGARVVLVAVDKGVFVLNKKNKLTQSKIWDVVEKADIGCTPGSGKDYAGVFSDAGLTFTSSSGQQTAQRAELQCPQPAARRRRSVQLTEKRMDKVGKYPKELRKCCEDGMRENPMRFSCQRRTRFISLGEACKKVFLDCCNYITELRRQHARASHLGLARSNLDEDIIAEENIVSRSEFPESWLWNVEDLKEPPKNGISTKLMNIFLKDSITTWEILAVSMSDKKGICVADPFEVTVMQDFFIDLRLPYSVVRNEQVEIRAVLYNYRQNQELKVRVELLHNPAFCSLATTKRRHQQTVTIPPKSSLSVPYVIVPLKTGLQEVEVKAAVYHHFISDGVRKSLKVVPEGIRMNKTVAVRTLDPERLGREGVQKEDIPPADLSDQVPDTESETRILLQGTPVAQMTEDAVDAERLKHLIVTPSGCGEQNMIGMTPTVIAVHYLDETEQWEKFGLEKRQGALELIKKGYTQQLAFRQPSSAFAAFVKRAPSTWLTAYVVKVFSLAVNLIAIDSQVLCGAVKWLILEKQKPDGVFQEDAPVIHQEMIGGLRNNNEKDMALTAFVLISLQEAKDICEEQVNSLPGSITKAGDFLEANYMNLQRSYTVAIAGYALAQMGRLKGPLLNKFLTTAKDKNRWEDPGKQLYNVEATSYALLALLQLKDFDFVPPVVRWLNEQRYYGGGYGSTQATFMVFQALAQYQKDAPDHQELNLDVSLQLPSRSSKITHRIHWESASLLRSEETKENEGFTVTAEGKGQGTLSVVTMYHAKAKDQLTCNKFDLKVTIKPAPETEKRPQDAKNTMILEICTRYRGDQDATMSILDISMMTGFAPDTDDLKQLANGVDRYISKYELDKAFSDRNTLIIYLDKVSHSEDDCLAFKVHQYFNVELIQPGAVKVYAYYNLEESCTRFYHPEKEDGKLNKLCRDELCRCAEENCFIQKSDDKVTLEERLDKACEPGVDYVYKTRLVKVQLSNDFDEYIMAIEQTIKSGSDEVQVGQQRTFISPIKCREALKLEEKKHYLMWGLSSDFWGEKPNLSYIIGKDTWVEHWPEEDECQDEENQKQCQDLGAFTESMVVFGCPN

B1: recombinant mature Complement Factor I made by in vitro furin cleavage of pro-rCFI (protein)
chain 1: KVTYTSQEDLVEKKCLAKKYTHLSCDKVFCQPWQRCIEGTCVCKLPYQCPKNGTAVCATNRRSFPTYCQQKSLECLHPGTKFLNNGTCTAEGKFSVSLKHGNTDSEGIVEVKLVDQDKTMFICKSSWSMREANVACLDLGFQQGADTQRRFKLSDLSINSTECLHVHCRGLETSLAECTFTKRRTMGYQDFADVVCYTQKADSPMDDFFQCVNGKYISQMKACDGINDCGDQSDELCCKACQGKGFHCKSGVCIPSQYQCNGEVDCITGEDEVGCAGFASVAQEETEILTADMDAERRRIKSLLPKLSCGVKNRMHI
chain 2: IVGGKRAQLGDLPWQVAIKDASGITCGGIYIGGCWILTAAHCLRASKTHRYQIWTTVVDWIHPDLKRIVIEYVDRIIFHENYNAGTYQNDIALIEMKKDGNKKDCELPRSIPACVPWSPYLFQPNDTCIVSGWGREKDNERVFSLQWGEVKLISNCSKFYGNRFYEKEMECAGTYDGSIDACKGDSGGPLVCMDANNVTYVWGVVSWGENCGKPEFPGVYTKVANYFDWISYHVGRPFISQYNV
Regarding B1, the “C3b inactivation (cofactor) assay with CFH, western blot of alpha1 and alpha2 bands” value is “lane 8 which corresponds to a sample containing the in vitro cleaved mature rCFI, is the only sample containing bands that correspond to the α1 and α2 chains”; the “C3b inactivation assay, second western blot” value was “The activity of the in vitro cleaved rCFI can be seen to be comparable to sCFI”.

B2: recombinant precursor Complement Factor I (pro-rCFI), His-tagged, expressed in CHO cells (protein)
chain: KVTYTSQEDLVEKKCLAKKYTHLSCDKVFCQPWQRCIEGTCVCKLPYQCPKNGTAVCATNRRSFPTYCQQKSLECLHPGTKFLNNGTCTAEGKFSVSLKHGNTDSEGIVEVKLVDQDKTMFICKSSWSMREANVACLDLGFQQGADTQRRFKLSDLSINSTECLHVHCRGLETSLAECTFTKRRTMGYQDFADVVCYTQKADSPMDDFFQCVNGKYISQMKACDGINDCGDQSDELCCKACQGKGFHCKSGVCIPSQYQCNGEVDCITGEDEVGCAGFASVTQEETEILTADMDAERRRIKSLLPKLSCGVKNRMHIRRKRIVGGKRAQLGDLPWQVAIKDASGITCGGIYIGGCWILTAAHCLRASKTHRYQIWTTVVDWIHPDLKRIVIEYVDRIIFHENYNAGTYQNDIALIEMKKDGNKKDCELPRSIPACVPWSPYLFQPNDTCIVSGWGREKDNERVFSLQWGEVKLISNCSKFYGNRFYEKEMECAGTYDGSIDACKGDSGGPLVCMDANNVTYVWGVVSWGENCGKPEFPGVYTKVANYFDWISYHVGRPFISQYNV
For B2, the “C3b cofactor assay, western blot” value was “only cleaved FI has activity, and Pro-FI is inactive”.

B3: serum CFI (Comptech) (protein)
chain: B2 chain
Regarding B3, the “C3b inactivation assay, positive control” value was “iC3b cleaved by incubation with mature sCFI”.
